Biological target: MSLN-Fc2 (Mesothelin-antibody Fc fusion protein) (human)
Assay: SPR

| Substance | Kd [nM] |
| --- | --- |
| Muc16 SEA10 module, uncleaved (with the Siderocalin fusion partner) (domain or fragment) | 899 |
| Muc16 SEA11 module, uncleaved (with the Siderocalin fusion partner) (domain or fragment) | > 10000 |

Reference: publication PMC11316652
